# According to US10918730B2, “Pegylated bioactive peptides and uses thereof” (GRIFFON PHARMACEUTICALS INC., priority 2016, dated 2021):
# Non-standard residues stand in square brackets, D forms with d. No end group written: not given here. hArg = N=C(N)NCCCC[C@H](N)C(=O)O; Orn = NCCC[C@H](N)C(=O)O
# What was measured:
# [1] = biological target: T1, human GHRH receptor (Homo sapiens, UniProt Q02643); assay: Hit Hunter (DiscoveRx) cAMP agonist assay in cells expressing GHRH receptor; type: cell-based; settings: for potency in words: Table 2 experiment, compared to native peptide; for in vitro biological activity in words: longer PEG chains at the 9th position
# T1 sequence (Q02643 23-423): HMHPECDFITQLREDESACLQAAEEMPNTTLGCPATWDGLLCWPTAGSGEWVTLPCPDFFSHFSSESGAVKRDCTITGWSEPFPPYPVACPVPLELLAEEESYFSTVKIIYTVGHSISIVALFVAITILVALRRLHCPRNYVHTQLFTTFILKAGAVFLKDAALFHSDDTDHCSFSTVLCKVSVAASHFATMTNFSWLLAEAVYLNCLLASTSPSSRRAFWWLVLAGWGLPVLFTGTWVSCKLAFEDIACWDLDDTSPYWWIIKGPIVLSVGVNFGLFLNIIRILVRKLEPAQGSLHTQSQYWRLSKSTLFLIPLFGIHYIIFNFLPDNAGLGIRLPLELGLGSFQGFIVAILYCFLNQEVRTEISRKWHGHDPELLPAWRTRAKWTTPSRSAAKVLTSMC
# Experimental: For agonist determination, cells were incubated with sample to induce response. Media was aspirated from cells and replaced with 15 μL 2:1 HBSS/10 mM Hepes:cAMP XS+ Ab reagent. […] Vehicle concentration was 1%. […] Microplates were read following signal generation with a PerkinElmer Envision™ instrument for chemiluminescent signal detection. Compound activity was analyzed using CBIS data analysis suite (ChemInnovation, CA).
# [2] = tested on: Growth Hormone secretion; assay: GH release kinetics after subcutaneous injection in Sprague-Dawley rats; type: in vivo; settings: female rats, single subcutaneous dose 0.04 mg/kg, FIG. 1; for GH AUC (0-90 min): plasma GH by ELISA
# Description: Protocol: Sprague-Dawley rats (female, weighing from 250 to 300 g) were obtained from Charles River Inc. Animals were used according to a protocol of the Animal Care Committee along with the principles of the Guide for the Care and Use of Experimental Animals of the Canadian Council on Animal Care. The animals were maintained on standard laboratory chow under a 12:12 light:dark cycle. They were kept in groups of 4 rats per cage. The animals were anesthetized with isoflurane 2.5%. A mid-section opening was made in the neck to expose the carotid artery. The carotid artery was canulated with polypropylene tubing (PE-50) to allow blood withdrawal. After surgical preparation, rats received a subcutaneous injection of GHRH analog (10-100 μg/kg) dissolved in 20 mM AcONa+5% mannitol at pH 5). Blood samples (400 μL/time point) were collected from 2-4 animals per group. […] Blood was collected into microtainer tubes containing K3EDTA, mixed and immediately centrifuged at 13,000 RPM in a desktop centrifuge for 2 minutes. The plasma was collected and placed into a screw cap Eppendorf™ tube and quickly frozen in liquid nitrogen. The samples were then kept at −80° C. until assayed. Determination of GH levels was performed as described below.
# Determination of GH levels in plasma samples: Rat and mouse plasma samples were vortexed carefully and centrifuged at 9,000 RPM for 2 min at 4° C. […] The remainder of the procedure was performed according to the manufacturers instructions, and the data obtained were analyzed using GraphPad Prism™ software. […] Growth hormone levels were determined in timed-aliquots of blood and are depicted in FIG. 1. […]
# The N-terminal part of the GHRH peptide is known to be buried in the extracellular loops and transmembrane domains of the GHRH receptor, and thus almost all of the amino acids in the N-terminal domain participate in high affinity binding of the GHRH peptide to the receptor. […] Briefly, peptides (0.04 mg/kg) were subcutaneously injected in female rats and growth hormone levels were determined in timed aliquots of blood drawn from the animals.
molecule,measurement,setting,value
"YaDAIFTASYROVLC(Peg-2K)QLSAROALQDILSKN-NH2 (Y[dA]DAIFTASYR[Orn]VLC(PEG 2 kDa)QLSAR[Orn]ALQDILSKN-NH2) [Analog 5 (C15), Cys15 conjugated to about 2 kDa PEG]",potency in words,[1],reduced potency
"YaDAIFTAC(Peg-2K)YROVLAQLSAROALQDILS(Har)-NH2 (Y[dA]DAIFTAC(PEG 2 kDa)YR[Orn]VLAQLSAR[Orn]ALQDILS[hArg]-NH2) [Analog 10 (C9), Cys9 conjugated to about 2 kDa PEG, Har29]",fold more potent than the 5K and 40K Pegylated GHRH peptides (analogs 15 and 16),[1]; Table 3 experiment,2-6 fold
same,fold more potent than the native peptide,[1]; Table 3 experiment,~14 fold
"YaDAIFTASYROVLAQLSAROALQDC(Peg-2K)LSKN-NH2 (Y[dA]DAIFTASYR[Orn]VLAQLSAR[Orn]ALQDC(PEG 2 kDa)LSKN-NH2) [Analog 8 (C26), Cys26 conjugated to about 2 kDa PEG]",potency in words,[1],reduced potency
"YaDAIFTASYROVLAQLSAROALQDILC(Peg-2K)KN-NH2 (Y[dA]DAIFTASYR[Orn]VLAQLSAR[Orn]ALQDILC(PEG 2 kDa)KN-NH2) [Analog 1 (C28), GHRH analog with Cys28 conjugated to about 2 kDa PEG]",stimulation of GH secretion in words,[2],potently stimulated GH secretion
"CC[C@H](C)[C@H](NC(=O)[C@H](C)NC(=O)[C@H](CC(=O)O)NC(=O)[C@H](C)NC(=O)[C@@H](N)Cc1ccc(O)cc1)C(=O)N[C@@H](Cc1ccccc1)C(=O)N[C@H](C(=O)N[C@@H](CC(N)=O)C(=O)N[C@@H](CO)C(=O)N[C@@H](Cc1ccc(O)cc1)C(=O)N[C@@H](CCCNC(=N)N)C(=O)N[C@@H](CCCCN)C(=O)N[C@H](C(=O)N[C@@H](CC(C)C)C(=O)NCC(=O)N[C@@H](CCC(N)=O)C(=O)N[C@@H](CC(C)C)C(=O)N[C@@H](CO)C(=O)N[C@@H](C)C(=O)N[C@@H](CCCNC(=N)N)C(=O)N[C@@H](CCCCN)C(=O)N[C@@H](CC(C)C)C(=O)N[C@@H](CC(C)C)C(=O)N[C@@H](CCC(N)=O)C(=O)N[C@@H](CC(=O)O)C(=O)N[C@H](C(=O)N[C@@H](CCSC)C(=O)N[C@@H](CO)C(=O)N[C@@H](CCCNC(=N)N)C(N)=O)[C@@H](C)CC)C(C)C)[C@@H](C)O [GHRH1-29, reference compound]",Max. response(%) (compared to baseline),"[1]; Table 3, independent experiment",112.97%
"YaDAIFTC(Peg-2K)SYROVLAQLSAROALQDILSKN-NH2 (Y[dA]DAIFTC(PEG 2 kDa)SYR[Orn]VLAQLSAR[Orn]ALQDILSKN-NH2) [Analog 7 (C8), Cys8 conjugated to about 2 kDa PEG]",potency in words,[1],reduced potency
same,GH AUC (0-90 min),[2],15657 ng/ml/90 min
"YaDAIFTAC(Peg-40K)YROVLAQLSAROALQDILS(Har)-NH2 (Y[dA]DAIFTAC(PEG 40 kDa)YR[Orn]VLAQLSAR[Orn]ALQDILS[hArg]-NH2) [Analog 16 (C9), Cys9 conjugated to about 40 kDa PEG, Har29]",in vitro biological activity in words,[1]; Table 3 experiment,without loss of in vitro biological activity
"YaDAIFTASYROVLAC(Peg-2K)LSAROALQDILSKN-NH2 (Y[dA]DAIFTASYR[Orn]VLAC(PEG 2 kDa)LSAR[Orn]ALQDILSKN-NH2) [Analog 9 (C16), Cys16 conjugated to about 2 kDa PEG]",potency in words,[1],reduced potency
"YaDAIFTASYROVLAQLSC(Peg-2K)ROALQDILSKN-NH2 (Y[dA]DAIFTASYR[Orn]VLAQLSC(PEG 2 kDa)R[Orn]ALQDILSKN-NH2) [Analog 4 (C19), Cys19 conjugated to about 2 kDa PEG]",potency in words,[1],reduced potency
"YaDAIFTAC(Peg-5K)YROVLAQLSAROALQDILS(Har)-NH2 (Y[dA]DAIFTACYR[Orn]VLAQLSAR[Orn]ALQDILS[hArg]-NH2; not fully specified (residue 9); printed as YaDAIFTAC(Peg-5K)YROVLAQLSAROALQDILS(Har)-NH2) [Analog 15 (C9), Cys9 conjugated to 5K PEG, Har29]",in vitro biological activity in words,[1]; Table 3 experiment,without loss of in vitro biological activity
"YaDAIFTAC(Peg-2K)YROVLAQLSAROALQDILSKN-NH2 (Y[dA]DAIFTAC(PEG 2 kDa)YR[Orn]VLAQLSAR[Orn]ALQDILSKN-NH2) [Analog 6 (C9), Cys9 conjugated to about 2 kDa PEG]",GH AUC (0-90 min),[2],29075 ng/ml/90 min
